According to paper PMC3633930, “Low Voltage Activation of KCa1.1 Current by Cav3-KCa1.1 Complexes” (PLoS ONE, 2013):

Target: Cav3.2 calcium channel α-subunit, full length, human (human, UniProt O95180 1-2353)
Experiment: cell-based or functional assay

Cav3.2 calcium channel α-subunit, full length, human, sequence (O95180 whole entry): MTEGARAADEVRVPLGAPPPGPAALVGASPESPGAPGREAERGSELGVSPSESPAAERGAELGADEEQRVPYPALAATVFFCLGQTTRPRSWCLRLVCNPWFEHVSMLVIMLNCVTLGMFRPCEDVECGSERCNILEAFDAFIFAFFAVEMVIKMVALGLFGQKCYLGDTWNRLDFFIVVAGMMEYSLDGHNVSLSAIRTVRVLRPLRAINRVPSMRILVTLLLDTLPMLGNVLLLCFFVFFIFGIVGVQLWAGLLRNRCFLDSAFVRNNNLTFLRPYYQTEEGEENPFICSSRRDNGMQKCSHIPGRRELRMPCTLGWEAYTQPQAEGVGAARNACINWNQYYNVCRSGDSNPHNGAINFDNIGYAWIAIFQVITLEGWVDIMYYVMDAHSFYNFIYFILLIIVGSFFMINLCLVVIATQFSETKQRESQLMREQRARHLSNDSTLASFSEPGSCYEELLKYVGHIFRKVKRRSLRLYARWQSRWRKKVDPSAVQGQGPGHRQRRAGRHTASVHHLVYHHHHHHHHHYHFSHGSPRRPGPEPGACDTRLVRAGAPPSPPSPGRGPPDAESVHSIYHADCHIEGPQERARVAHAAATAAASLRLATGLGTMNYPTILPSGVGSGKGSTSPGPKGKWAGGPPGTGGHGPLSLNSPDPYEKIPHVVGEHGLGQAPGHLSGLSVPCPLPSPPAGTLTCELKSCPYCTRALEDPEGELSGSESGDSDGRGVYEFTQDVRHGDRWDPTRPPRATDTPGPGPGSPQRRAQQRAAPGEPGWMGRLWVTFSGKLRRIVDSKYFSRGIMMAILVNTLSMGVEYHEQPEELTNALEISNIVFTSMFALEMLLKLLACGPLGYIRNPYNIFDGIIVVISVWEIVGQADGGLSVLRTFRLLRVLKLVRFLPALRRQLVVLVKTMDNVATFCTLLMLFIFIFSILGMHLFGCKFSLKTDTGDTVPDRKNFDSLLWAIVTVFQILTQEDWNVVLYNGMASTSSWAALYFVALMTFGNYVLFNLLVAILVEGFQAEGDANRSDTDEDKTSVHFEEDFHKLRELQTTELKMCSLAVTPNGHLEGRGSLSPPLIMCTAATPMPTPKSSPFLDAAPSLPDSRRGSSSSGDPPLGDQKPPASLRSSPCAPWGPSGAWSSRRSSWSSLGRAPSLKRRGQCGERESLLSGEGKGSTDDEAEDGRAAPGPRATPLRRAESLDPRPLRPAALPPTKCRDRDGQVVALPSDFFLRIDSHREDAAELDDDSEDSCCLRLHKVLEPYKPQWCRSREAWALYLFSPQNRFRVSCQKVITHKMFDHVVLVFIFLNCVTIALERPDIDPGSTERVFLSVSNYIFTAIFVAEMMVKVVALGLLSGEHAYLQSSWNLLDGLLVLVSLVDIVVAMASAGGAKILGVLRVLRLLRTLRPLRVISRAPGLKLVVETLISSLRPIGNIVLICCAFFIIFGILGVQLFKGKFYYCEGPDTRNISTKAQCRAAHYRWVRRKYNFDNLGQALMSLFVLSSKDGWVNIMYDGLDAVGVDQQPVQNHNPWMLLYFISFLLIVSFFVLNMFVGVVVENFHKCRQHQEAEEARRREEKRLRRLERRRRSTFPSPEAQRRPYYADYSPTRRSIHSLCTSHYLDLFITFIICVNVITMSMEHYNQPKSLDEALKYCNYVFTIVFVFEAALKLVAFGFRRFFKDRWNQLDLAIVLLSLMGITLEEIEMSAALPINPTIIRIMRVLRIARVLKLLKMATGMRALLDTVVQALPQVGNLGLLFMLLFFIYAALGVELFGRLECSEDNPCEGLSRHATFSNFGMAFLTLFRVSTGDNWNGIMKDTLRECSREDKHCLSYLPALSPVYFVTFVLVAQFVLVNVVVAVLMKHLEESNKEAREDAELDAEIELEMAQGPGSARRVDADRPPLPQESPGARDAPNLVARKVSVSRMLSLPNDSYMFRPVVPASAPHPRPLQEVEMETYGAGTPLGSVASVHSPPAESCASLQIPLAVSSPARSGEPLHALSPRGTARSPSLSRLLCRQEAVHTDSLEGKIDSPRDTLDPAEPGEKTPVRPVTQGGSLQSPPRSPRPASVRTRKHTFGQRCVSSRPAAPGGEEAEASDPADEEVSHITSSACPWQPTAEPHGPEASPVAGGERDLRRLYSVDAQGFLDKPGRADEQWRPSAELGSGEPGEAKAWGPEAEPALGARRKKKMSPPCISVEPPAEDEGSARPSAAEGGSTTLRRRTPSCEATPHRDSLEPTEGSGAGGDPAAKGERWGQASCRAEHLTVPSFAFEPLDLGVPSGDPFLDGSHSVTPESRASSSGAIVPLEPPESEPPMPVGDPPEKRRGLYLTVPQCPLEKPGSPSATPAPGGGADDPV

fold increase of the P2/P1 ratio of KCa1.1 current at +40 mV when P2 is preceded by a −30 mV prepulse, whole-cell patch clamp of tsA-201 cells coexpressing Cav3.2 and KCa1.1: 2.7 fold
B1: KCa1.1 potassium channel α-subunit, full length, myc-tagged, human (natural protein)
chain: not shown
